Here are results for 22 molecules from patent publication US20090011988A1 (Genentech, published 2009).

The target of assay [1] is T1, recombinant human IGFBP-3 (human, UniProt P17936 28-291). As to the kind of experiment: phage ELISA (IGF-blocking phage assay): g8 peptide-phage at a 50-fold dilution on an IGFBP-3-coated plate, without and with IGF-1; OD492. As for the experimental part: (§1) The plates were then washed ten times, as above, and a solution of rabbit anti-phage antibody mixed with a goat-anti-rabbit conjugate of horseradish peroxidase was added. After an incubation of 1 hour at room temperature, the plates were developed with a chromogenic substrate, o-phenylenediamine (Sigma). The reaction was stopped with addition of ½ volume of 2.5 M H₂SO₄. Optical density at 490 nm was measured on a spectrophotometric plate reader.
In each case, the phagemid clone was grown from a single colony overnight at 37° C. in a culture volume of 5 ml. The phage particles were precipitated and resuspended in 0.5 ml of PBS buffer.
A general note: ELISA stands for enzyme-linked immunosorbent assay.

For assay [2], the target named is T1, recombinant human IGFBP-3. Put plainly: BIAcore competition, IGFBP-3 to immobilized IGF-1. As for the experimental part: IGF-1 was immobilized on a dextran chip for inhibition assays using a BIACORE™ 2000 surface-plasmon-resonance device (BIAcore, Inc., Piscataway, N.J.) to measure free binding protein. IGF-1 was biotinylated as described above, and injected over a chip to which streptavidin had been coupled (BIAcore, Inc.) to give 400 to 800 RU (response units) of immobilized IGF-1. […] After incubation for >1 hour at room temperature, an aliquot of 20:L was injected at a flow rate of 20:L/min over the IGF-1 chip. […]

The target in assay [3] is T1, recombinant human IGFBP-3. As to the kind of experiment: BIAcore competition, IGFBP-3 to IGF-1. As to the method:
IGF-1 was immobilized on a dextran chip for inhibition assays using a BIACORE™ 2000 surface-plasmon-resonance device (BIAcore, Inc., Piscataway, N.J.) to measure free binding protein. IGF-1 was biotinylated as described above, and injected over a chip to which streptavidin had been coupled (BIAcore, Inc.) to give 400 to 800 RU (response units) of immobilized IGF-1. […] After incubation for >1 hour at room temperature, an aliquot of 20:L was injected at a flow rate of 20:L/min over the IGF-1 chip.
On the technique in general: Surface plasmon resonance follows binding to a sensor surface in real time, without labels.

Assay [4] addresses T1, recombinant human IGFBP-3. As to the kind of experiment: BIAcore competition, IGFBP-3 to immobilized IGF-2. As to the method:
IGF-2 was immobilized on a dextran chip for inhibition assays using a BIACORE™ 2000 surface-plasmon-resonance device (BIAcore, Inc., Piscataway, N.J.) to measure free binding protein. IGF-2 was biotinylated as described above, and injected over a chip to which streptavidin had been coupled (BIAcore, Inc.) to give approximately 1500 RU of immobilized IGF-2. […] After incubation for >1 hour at room temperature, an aliquot of […] was injected at a flow rate of […] over the IGF-2 chip.

For assay [5], the target named is T1, recombinant human IGFBP-3. As to the kind of experiment: phage ELISA: titration of g8 peptide-phage on an IGFBP-3-coated plate without IGF-1; OD492. As for the experimental part: as §1
The target of assay [6] is T1, recombinant human IGFBP-3. Put plainly: BIAcore competition, IGFBP-3 to IGF-1. The source holds these as a separate data set.
Assay [7] has as its target T2, human IGFBP-1 (human, UniProt P08833 26-259).
T2 sequence (looked up): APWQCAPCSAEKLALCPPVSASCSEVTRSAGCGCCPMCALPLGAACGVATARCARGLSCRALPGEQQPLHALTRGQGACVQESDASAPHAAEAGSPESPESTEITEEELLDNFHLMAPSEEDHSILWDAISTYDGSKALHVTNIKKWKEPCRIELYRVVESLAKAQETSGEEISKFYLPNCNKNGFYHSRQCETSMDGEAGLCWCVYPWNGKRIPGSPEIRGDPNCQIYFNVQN
As to the kind of experiment: ELISA inhibition assay.

The target of assay [8] is T1, recombinant human IGFBP-3. As to the kind of experiment: phage ELISA (IGF-blocking phage assay): titration of g8 peptide-phage on an IGFBP-3-coated plate in the presence of 100 nM IGF-1; OD492. As to the method: as §1
Assay [9] addresses T2, human IGFBP-1. As to the kind of experiment: BIAcore kinetics, IGFBP-1 coupled to chip. As for the experimental part:
For each dilution of peptides, a global fit of the sensorgram data was performed using a 1:1 Langmuir binding model.

Assay [10] concerns the target T1, recombinant human IGFBP-3. Put plainly: phage ELISA on IGFBP-3 plate, competitor IGF-1.
Assay [11] has as its target T2, human IGFBP-1. Put plainly: BIAcore, IGFBP-1 coupled to chip.

Positions of bridges follow the written chain, without caps; N, C: chain ends. No end group written: not given here. suc = not defined here

T1 sequence (P17936 28-291 limits assumed): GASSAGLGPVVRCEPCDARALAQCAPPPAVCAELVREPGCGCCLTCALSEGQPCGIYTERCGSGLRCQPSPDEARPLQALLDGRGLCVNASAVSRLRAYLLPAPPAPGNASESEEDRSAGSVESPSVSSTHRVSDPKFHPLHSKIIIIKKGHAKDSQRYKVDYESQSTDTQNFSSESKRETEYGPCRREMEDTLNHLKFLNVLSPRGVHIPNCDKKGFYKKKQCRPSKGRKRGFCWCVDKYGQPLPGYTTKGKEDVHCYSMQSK

B1: peptide-phage clone 4C3.2 (g8 display) (peptide, not shown: large carriers)
chain: ELDGWVCIKVGEQNLCYLAE
modifications: not fully specified (bridges); cysteine pairing not given here; also: polyvalent display on M13 phage, fused via linker to g8p
notes: polyvalent display on M13 phage
For the molecule B1, the binding result in [1] is listed as “binds”.

B2: BP3-15 (peptide)
peptide: SEEVCWPVAEWYLCN
modifications: disulfide 5-14
B2: the IC50 in assay [2] is 750 nM; in [3], 720 nM; in [4], 780 nM.

B3: BP3-17 (peptide)
peptide: VCWPVAEWYLCN
modifications: disulfide 2-11
As for B3, the IC50 came to 9000 nM in [2] and 5100 nM in [4].

B4: peptide-phage clone 4D3.5 (g8 display) (peptide, not shown: large carriers)
chain: WFKTVCYEWEDEVQCYTLEE
modifications: not fully specified (bridges); cysteine pairing not given here; also: polyvalent display on M13 phage, fused via linker to g8p
notes: as for B1
On to B4, for which the binding result in [5] is reported as “binds”.

B5: peptide-phage clone 4D3.4 (g8 display) (peptide, not shown: large carriers)
chain: RVGAYISCSETECWVEDLLD
modifications: not fully specified (bridges); cysteine pairing not given here; also: polyvalent display on M13 phage, fused via linker to g8p
notes: as for B1
With B5, the binding result in [5] is “binds”.

B6: BP3-108 (peptide)
peptide: suc-IPVSPDWFVCQ-NH2
modifications: reading uncertain
notes: also called phage parent t4H3.9
Turning to B6, the IC50 in [6] stood at 20000 nM.

B7: BP1-26 (peptide)
peptide: CRAGPLQWRCEKYF
modifications: disulfide 1-10
notes: also called BP1-16 L9R
Consider B7, for which the binding result in [7] was “no binding (tested: >570-fold the IC50 of BP1-16)”.

B8: BP1-32 (peptide)
peptide: CRAGPRQWLCEKYF
modifications: disulfide 1-10
notes: also called BP1-16 L6R
Consider B8, for which, in assay [7], the binding result is “no binding (tested: >1000-fold the IC50 of BP1-16)”.

B9: peptide-phage clone 4A3.1 (g8 display) (peptide, not shown: large carriers)
chain: SGTACYGGPEWWCCSLAGSP
modifications: not fully specified (bridges); also: displayed on M13 g8p phage, disulfide pairing of the three Cys not given here
notes: as for B1
As to B9, the binding result in assay [8] was “binds”.

B10: 4D3.8 (peptide)
peptide displayed on M13 phage as a fusion to g8p: SEEVCWPVAEWYLCNILGP
modifications: not fully specified (bridges); cysteine pairing not given here; also: displayed on phage as g8p fusion
notes: whole phage particle in the assay; also called peptide-phage clone 4D3.8 (g8 display)
B10: the binding result in [1] was “binds”.

B11: BP3-01-ox (peptide)
peptide: SEEVCWPVAEWYLCNMWG
modifications: disulfide 5-14
In the case of B11, the IC50 in assay [2] was 2000 nM; in assay [3], 2000 nM; in [4], 920 nM.

B12: peptide-phage clone 4D3.3 (g8 display) (peptide, not shown: large carriers)
chain: SEEVCWPVAEWYLCNMWGR
modifications: not fully specified (bridges); cysteine pairing not given here; also: polyvalent display on M13 phage, fused via linker to g8p
notes: as for B1
On to B12, for which the binding result in assay [8] is recorded as “binds”.

B13: BP1-21A (peptide)
peptide: SEVGCRAGPLQWLCEKYFSTY-NH2
modifications: disulfide 5-14; N-terminus assumed
SMILES: CC(C)C[C@@H]1NC(=O)[C@H](Cc2c[nH]c3ccccc23)NC(=O)[C@H](CCC(N)=O)NC(=O)[C@H](CC(C)C)NC(=O)[C@@H]2CCCN2C(=O)CNC(=O)[C@H](C)NC(=O)[C@H](CCCNC(=N)N)NC(=O)[C@@H](NC(=O)CNC(=O)[C@@H](NC(=O)[C@H](CCC(=O)O)NC(=O)[C@@H](N)CO)C(C)C)CSSC[C@@H](C(=O)N[C@@H](CCC(=O)O)C(=O)N[C@@H](CCCCN)C(=O)N[C@@H](Cc2ccc(O)cc2)C(=O)N[C@@H](Cc2ccccc2)C(=O)N[C@@H](CO)C(=O)N[C@H](C(=O)N[C@@H](Cc2ccc(O)cc2)C(N)=O)[C@@H](C)O)NC1=O
notes: also called Y135C
In turn, B13 displayed a Kd in assay [9] of 41 nM.

B14: peptide-phage clone 4B3.4 (g8 display) (peptide, not shown: large carriers)
chain: DMGVCADGPWMYVCEWTE
notes: as for B1
Consider B14, for which, in assay [8], the binding result is on record as “binds”.

B15: BP1-40 (peptide)
peptide: GQQSCRAGPLQWLCEKYFSTY
modifications: disulfide 5-14
notes: also called Y0791A
B15 came in with a Kd in assay [9] of 27 nM.

B16: peptide-phage clone 4D3.11 (g8 display) (peptide, not shown: large carriers)
chain: VAWEVCWDRHDQGYICTTDS
notes: as for B1
For the molecule B16, the “% inhibition of phage binding by 100 nM IGF-1” value (“% inhibition of phage binding” for short) in [10] was 5%.

B17: BP3-107 (peptide)
peptide: suc-CQLVRPDLLLCQ-NH2
modifications: disulfide 1-11; reading uncertain
notes: also called phage parent t4H3.6
B17: the IC50 in assay [6] worked out at 100000 nM.

B18: peptide-phage clone 23A3.3 (g8 display) (peptide, not shown: large carriers)
chain: SGGAIYWPVEQFIAFMAVGK
notes: as for B1
Take B18: in assay [10], the “% inhibition of phage binding” value was roughly 20%.

B19: peptide-phage clone 23A3.5 (g8 display) (peptide, not shown: large carriers)
chain: SGGAIYMPVEQFIAFMAVGK
notes: as for B1
For B19, the “% inhibition of phage binding” value in assay [10] was roughly 20%.

B20: 4D3.12 (peptide)
peptide displayed on M13 phage as a fusion to g8p: AEWAECWIAGDQLLCVGKDN
modifications: not fully specified (bridges); cysteine pairing not given here; also: displayed on phage as g8p fusion
notes: whole phage particle in the assay; also called peptide-phage clone 4D3.12 (g8 display)
With B20, the binding result in assay [1] was “binds”.

B21: BP1-02 (peptide)
peptide: SEVGCRAGPLQWLCEKYFG
modifications: disulfide 5-14
B21 returned a Kd in assay [9] of 210 nM. In [11], the “half-life for peptide dissociation” value is roughly 28 s, the koff stood at 0.0503 s⁻¹ and the kon worked out at 230000 M⁻¹ s⁻¹.

B22: 4D3.9 (peptide)
peptide displayed on M13 phage as a fusion to g8p: ETVANCDCYMDLCLCYGSDR
modifications: not fully specified (bridges); cysteine pairing not given here; also: displayed on phage as g8p fusion
notes: whole phage particle in the assay; also called peptide-phage clone 4D3.9 (g8 display)
Regarding B22, the binding result in [1] is listed as “binds”.

What is called IC50 is the concentration that gives 50% inhibition. One may read the Kd as a measure of binding affinity in units of concentration. High values mean lower affinity, low ones higher affinity. As a reminder, the koff is the first-order rate constant of dissociation. Read a low koff as slow dissociation. The kon is the second-order rate constant of association.
